Assay: VAS self-rated pain perception of bolus delivery and daily infusion
Format: in vivo, human (T1DM patients)
Conditions: ID compared to SC infusion
Protocol: Patients rated bolus-associated pain immediately after insulin delivery for both meals and again each evening at approximately 6 PM after completion of the morning dosing and sampling cycles to rate overall discomfort from the infusion process during the preceding 24 h. The visual analog scale (VAS) utilized a standard validated 10-cm scale anchored by “no pain” (score 0) and “severe pain” (score 10) without inclusion of additional numerical or verbal descriptors to avoid clustering of scores around intermediate points. Scores were measured as absolute distant from origin. Within 1 h prior to device removal, patients completed a non-validated user acceptability questionnaire consisting of a set of standard multiple choice closed-ended questions covering acceptability of sensations for infusion sets application and operation, set satisfaction, willingness to use the respective infusion set again, and set preference. Responses were restricted to a 5-point scale generally ranging from extreme agreement/satisfaction to extreme disagreement/satisfaction depending upon the question. […]
Pharmacokinetic parameters were derived from baseline corrected blood insulin data. […] PK and PD endpoints were analyzed using a linear mixed effects model (ANOVA) with sequence, application route, meal, and day as factors along with interactions. […]

For insulin aspart, which VAS self-rated pain is on record?
The VAS self-rated pain was “statistically greater for ID compared to SC infusion”.

— PMC4529466, “Intradermal insulin infusion achieves faster insulin action than subcutaneous infusion for 3-day wear” (Drug Delivery and Translational Research, 2015)
